According to PMC10799026, “Differences in regulation mechanisms of glutamine synthetases from methanogenic archaea unveiled by structural investigations” (Communications Biology, 2024):

How the values were obtained:
[1] = target: glutamine synthetase (GSI-α) from Methanothermococcus thermolithotrophicus (Methanothermococcus thermolithotrophicus); test: native gel or EMSA; high-resolution clear native PAGE (hrCN PAGE), 5-12% gradient gels, 40 mA for 1 h, 2 µg purified GS; size from a fit to standard proteins
[2] = target: glutamine synthetase (GSI-α) from Methanothermococcus thermolithotrophicus (Methanothermococcus thermolithotrophicus); test: crystal structure; sitting drop, 20 °C, anaerobic; apo and ligand-bound (2OG/Mg2+, 2OG/Mg2+/ATP, Mg2+/ATP) crystal forms
[3] = target: glutamine synthetase (GSI-α) from Methanothermococcus thermolithotrophicus (Methanothermococcus thermolithotrophicus); test: SEC; Superose 6 Increase 10/300 GL, anaerobic, 20 °C, 25 mM Tris/HCl pH 7.6, 10% glycerol, 2 mM DTT, 0.4 ml/min; 76 µg MtGS, 67.5 µg MsGS; size from a fit to standard proteins
MsGS = target: T1, MsGS (Methermicoccus shengliensis, UniProt A0A832VZP6); test: PK/LDH coupled assay, NADH oxidation at […] nm; assay type: biochemical; conditions: read-out: % inhibition at 20 mM
T1 construct: gene glnA; native, purified anaerobically from M. shengliensis cells, no tag
T1 sequence (A0A832VZP6 1-442): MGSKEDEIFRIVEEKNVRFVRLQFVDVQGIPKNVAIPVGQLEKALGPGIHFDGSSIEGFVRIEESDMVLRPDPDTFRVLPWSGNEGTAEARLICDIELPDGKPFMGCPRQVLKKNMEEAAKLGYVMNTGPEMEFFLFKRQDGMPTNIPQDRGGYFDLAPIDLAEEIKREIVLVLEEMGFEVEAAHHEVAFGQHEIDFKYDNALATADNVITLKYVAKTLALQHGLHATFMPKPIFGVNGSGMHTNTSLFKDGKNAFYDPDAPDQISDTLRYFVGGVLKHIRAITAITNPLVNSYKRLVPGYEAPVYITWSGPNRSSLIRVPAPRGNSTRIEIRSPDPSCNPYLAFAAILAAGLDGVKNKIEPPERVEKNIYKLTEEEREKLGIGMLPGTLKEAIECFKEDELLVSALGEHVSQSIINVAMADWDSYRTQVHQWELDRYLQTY

[4] = target: glutamine synthetase (GSI-α) from Methermicoccus shengliensis (Methermicoccus shengliensis); test: native gel or EMSA; high-resolution clear native PAGE (hrCN PAGE), 5-12% gradient gels, 40 mA for 1 h, 2 µg purified GS; size from a fit to standard proteins
[5] = target: glutamine synthetase (GSI-α) from Methermicoccus shengliensis (Methermicoccus shengliensis); test: crystal structure; sitting drop, 20 °C, anaerobic; apo and ligand-bound (2OG/Mg2+, 2OG/Mg2+/ATP, Mg2+/ATP) crystal forms
[6] = target: glutamine synthetase (GSI-α) from Methermicoccus shengliensis (Methermicoccus shengliensis); test: SEC; Superose 6 Increase 10/300 GL, anaerobic, 20 °C, 25 mM Tris/HCl pH 7.6, 10% glycerol, 2 mM DTT, 0.4 ml/min; 76 µg MtGS, 67.5 µg MsGS; size from a fit to standard proteins
purified protein [7] = substrate: N[C@@H](CCC(=O)O)C(=O)O; test: purified protein; assay type: biochemical, Methanothermococcus thermolithotrophicus; conditions: in presence of 2 mM 2OG (required activator), 20 mM NH4Cl, 3 mM ATP, 25 mM MgCl2, pH 7, 45 °C, Hill fit
purified protein [8] = substrate: N; test: purified protein; conditions: 3 mM ATP, 25 mM MgCl2, pH 7, 45 °C, Hill fit
purified protein [9] = substrate: N[C@@H](CCC(=O)O)C(=O)O; test: purified protein; assay type: biochemical, Methermicoccus shengliensis; conditions: 20 mM NH4Cl, 3 mM ATP, 25 mM MgCl2, pH 7, 45 °C, standard mix contains 2 mM 2OG (no effect on MsGS), Hill fit
[10] = in presence of 2 mM 2OG (required activator), 50 mM glutamate
[11] = 80 mM glutamate, standard mix contains 2 mM 2OG (no effect on MsGS)

Q: How did the stoichiometry N [1] turn out when “glutamine synthetase (GSI-α) from Methanothermococcus thermolithotrophicus (enzyme)” was run?
A: 12

Q: What about the stoichiometry N [2] of the same molecule?
A: 12

Q: And the stoichiometry N [3]?
A: 12

Q: `NC(=O)CC[C@H](N)C(=O)O` [glutamine] was tested. Which inhibition at 20000 µM (MsGS) did it give?
A: 97%

Q: Which stoichiometry N [4] does the source give for “glutamine synthetase (GSI-α) from Methermicoccus shengliensis (enzyme)” here?
A: 12

Q: And the stoichiometry N [5]?
A: 12

Q: And the stoichiometry N [6]?
A: 12

B1: MtGS (Methanothermococcus thermolithotrophicus DSM 2095) (protein)
chain: MSTVEQVLEYVKSNNVKFMRFQFVDILGVPKNVAFPIKAGEKGIEELRDVLENGLYFDGSSIEGFVGINESDMMLKPDLSTFSVLPWRPSEKSVARVICDVYTTKGKPFEGDPRGCLKRVMEEFKKEFNGEYFVGPEPEFFLLKKDPHNPHKYIPADDGGYFDLEPMDEAPDIRRDIVFALENLGFHVEASHHEVAPGQHEVDFKFDDALKTADSVITFKTTIKTIAEQHGLKATFMPKPFFGMNGSGMHCHQSIWLNGEPSFYDENAPYQLSETCMNYVAGILKHAKAIVAITNPTVNSYKRLVPGYEAPVNIAWANSNRSAIIRVPAARGKGTRIEFRAPDPSCNPYLAFTVMLAAGLDGVKNKLDAPEPVERNIFAMSEAEKKELGIESVPANLKAALDELENNDVLKNALGKHIFESFLEIKNAEWDSFRTSVTDWETTAYLKI
notes: native, purified anaerobically from M. thermolithotrophicus cells, no tag
Q: What does the source list for B1?
A: Km (purified protein [7]): 8.76 ± 0.87 mM; Vmax (purified protein [7]): 3.42 µmol/min/mg; Km (purified protein [8]; [10]): 0.14 ± 0.01 mM; Vmax (purified protein [8]; [10]): 3.27 µmol/min/mg

B2: MsGS (Methermicoccus shengliensis) (protein)
chain: T1 sequence (A0A832VZP6 1-442)
notes: native, purified anaerobically from M. shengliensis cells, no tag
Q: Which results are given for B2?
A: Km (purified protein [9]): 32.57 ± 3.13 mM; Vmax (purified protein [9]): 1.4 µmol/min/mg; Km (purified protein [8]; [11]): 0.07 ± 0.01 mM; Vmax (purified protein [8]; [11]): 0.98 µmol/min/mg
